Test results reported in paper PMC7367482, “An Erg11 lanosterol 14-α-demethylase-Arv1 complex is required for Candida albicans virulence” (PLoS ONE, 2020).

Molecular target: T1, ScErg28-Cub (S. cerevisiae, UniProt P40030 1-148)
T1 construct: Erg28 of S. cerevisiae, scaffold of the ergosome; Cub vector pCYC-BAIT-Cub-PLV; source: split-ubiquitin two-hybrid fusion, S. cerevisiae L40
T1 sequence: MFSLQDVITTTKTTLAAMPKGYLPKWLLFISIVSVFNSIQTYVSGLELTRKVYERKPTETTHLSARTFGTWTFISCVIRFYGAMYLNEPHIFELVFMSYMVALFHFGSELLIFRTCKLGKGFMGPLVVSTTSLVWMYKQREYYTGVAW
Assay: two-hybrid; split-ubiquitin two-hybrid in S. cerevisiae L40; Cub-PLV and NubG fusions; growth on Trp- Leu- His- plates after 48 hr and >3-fold β-galactosidase activity over the negative control
Conditions: partners not purified

B1: ScErg27-NubG (natural protein)
chain: MNRKVAIVTGTNSNLGLNIVFRLIETEDTNVRLTIVVTSRTLPRVQEVINQIKDFYNKSGRVEDLEIDFDYLLVDFTNMVSVLNAYYDINKKYRAINYLFVNAAQGIFDGIDWIGAVKEVFTNPLEAVTNPTYKIQLVGVKSKDDMGLIFQANVFGPYYFISKILPQLTRGKAYIVWISSIMSDPKYLSLNDIELLKTNASYEGSKRLVDLLHLATYKDLKKLGINQYVVQPGIFTSHSFSEYLNFFTYFGMLCLFYLARLLGSPWHNIDGYKAANAPVYVTRLANPNFEKQDVKYGSATSRDGMPYIKTQEIDPTGMSDVFAYIQKKKLEWDEKLKDQIVETRTPI
notes: Erg27 of S. cerevisiae; Nub vector pADH-PREY-2HA-NubG; source: split-ubiquitin two-hybrid fusion, S. cerevisiae L40
fold increase in β-galactosidase activity over the negative interaction control: 15 fold
